Test results as given in PMC5034536, “Molecular insights into substrate recognition and catalytic mechanism of the chaperone and FKBP peptidyl-prolyl isomerase SlyD” (BMC Biology, 2016).
Where two headings read alike, the source gives them in different places. No end group written: not given here.

Experiments:
[1] = biological target: full-length SlyD from Thermus thermophilus (TtSlyDFL) (Thermus thermophilus)
[2] = biological target: full-length SlyD from Thermus thermophilus (TtSlyDFL) (Thermus thermophilus); remark: listed apart in the source

| Binder | Kd [1] [µM] | dH [1] [kcal/mol] | stoichiometry N [1] | Kd [2] [µM] | dH [2] [kcal/mol] | stoichiometry N [2] |
| --- | --- | --- | --- | --- | --- | --- |
| VGSNSYPHKYNNYEG-NH2 [T1 peptide] | 158 | -14.6 | 1.13 |  |  |  |
| WNPKMKP-NH2 [S2-short8 peptide] |  |  |  | 163 | -5.1 | 1.29 |
| SGLVPRGS-NH2 [SlpA linker peptide] | 133 | -0.4 | 1.44 |  |  |  |
